Reference: the nanobody polyreactivity screen of Harvey et al. (2022)

Experiment: yeast display, Sf9 membrane polyspecificity reagent, FACS + sequencing; frameworks hold sequencing errors
In short: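 A nanobody's polyreactivity label depends on the gate it was sorted from. Yeast display cells were stained with 10% biotinylated, detergent-solubilized Sf9 membrane reagent for 1 hour at 4 °C, enriched on streptavidin microbeads and sorted by FACS. The low and high (top ~1%) gates were set on anti-HA fluorescence for expression and streptavidin fluorescence for reagent binding.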

Row | Sequence | polyreactivity (PSR sort gate)
1 | QVQLVESGGGLVQAGGSLRLSCAASGRIFVYYTMGWYRPAPGKEREFVAAITRSGGRTYYADSVKGRFTISRDNAKNTVYLQMNSLKPEDTAVYYCNRDPTYLAYYIKYDSWGQGTQVTVSS | high polyreactivity
2 | QVQLVESGGALVQAGGSLRLSCAASGIIFGGYALGWYRQEPGKERELVAAISCGGSTNYADSVKGRFTISRDNAKNTVYLQMNSLKPEDTSVYYCAADSASSYSYNYWGQGSQVTVSS | low polyreactivity
3 | QVQLVESGGGLVQAGGSLRLICAASGSTFVEYAMGWYRQAPGKERELVATISYRGTRTYYADSVKGRFTISRDNAKNTVYLQMNSLKPEDTAVYYCAARSWFRTVEYDYWGKGTQVTVSS | high polyreactivity
4 | QVQLVESGGGLVQAGGSLRLSCDATGSIISYNTMGWYRQAPGKERELVAAITWGGRTYYADSVKGRFTISRDNAKNTVYLQMNSLKPEDTAVYYCAKRIRGGAPTYDYWGQRTQVTVSS | low polyreactivity
5 | QVQLVESGGGLVQSGGSLRLSCAASGSSFLWYGMGSYRQAPGKERELVASISRGGGTDYADSVKGRFTISRDNAKNTVYLQMNSLKPEDTAVYYCAATGVKRYDHWGQGTQVTVSS | low polyreactivity
6 | QVQLVESGGALVQAGGSLRLSCAASGSIFVSYAKGWSRPAPGKERELLATITTSTGSTYADSVKGRFTISRDNAKNTVYLQMNSLKPEDTAVYYCAARYQPWLKYDFDSWGQGTQVTVSS | low polyreactivity
7 | QVQLQESGGGQVLAGGSLRVSCAASGYIPYSRWMGWNRQAPGKEREFVAGIGYGSSTYYADSVKGRFTISRDNAKNTVYLQMNSLKPEDTAVYYCNASIFFRRNVTQVRMDYWGQGSQVTVSS | high polyreactivity
8 | QVQLVESGGGLVQAGGSLRLSCAPSGFIITYFGMGWYRQAPGKERELVAAISSRGGSTYYADSVKGRFTISRDTAKNTVYLQMNSLKPEDTAVYYFNTDSYRWTFSNRRYDYWGQGTQVTVSS | high polyreactivity
9 | QVQLVESGGGLFQAGGSRRLICSASGFTFASNAMGWYRQAPGKERELVAAITSRGGGTYYADSVKGRFTISRDNAKNTVYLQMNSLKPEDTAVYYCNVVYGVRYFNSRGYYYWGQGTQVTVSS | high polyreactivity
10 | QVQLVESGGGLVQAGGSLRLSCAASGSIFWSYAMGWYRQAPGKERELVAAITRSGGSTYYADSVKGRFTISRDNAKNTVYLQINSLKPEDTAVDYCNAATPYSWGYRRGYWGQGTQVTVSS | high polyreactivity
11 | QVQLVESGGGLVQAGGSLRISCAASGRTFYGNAMGWYRQAPGKEREFFAAISASGGSTYYADSVKGRFTISRDNAKNTVYLQLNSLKPEDTSVYYCATDLGAFSVPYSPYDYWGLGTQVTVSS | low polyreactivity
12 | QVQLVESGGGLVQAGGSLRLSCAASGFTFSTYAMGWYRQAPGKERELVAAISRSGGSTYYADSVKGRFTISRDNAKNTVYLQMNSLKPEDTAVYYCNAEGPSYYYIIYDYWGQGTQVTGSS | high polyreactivity
13 | QVQLVESGGGLLQAGGSLRLSCADSGSTFSRYSMGWYRQAPGKEREFVAAISRSGASTYYADSVKGRFTISRDNEMNTVNLQMNSLKPEDTAVYYCNTRRWRFVKYGYWGQGTQVTVSS | high polyreactivity
14 | QVQLVESGGGLVQAGGSLRLSCAASGRLFYRNAMGWYRQAPGKERELVAAISSSAGSTYYADSVKGRFTISRDNAKNTVYLQMNSLKPEDTAVYYCAASLYSWGQGTQVTVSS | high polyreactivity
15 | QVQLVESGGGLVQAGGSLRLSCAASGNTFVAYTMGWYRPAPGKERELVAAISWRGGTTYYADSVKGRFTISRDNAKNTVYLQMNSLKPEDTAVYYCAARTSYISHGYVTHGLYYWGQGTQVTVSS | high polyreactivity
16 | QVQLVESGGGLVQAGGSLRLSCAASGSTIGANAMGWSRQAPGKERELVAAISLSGGTSYADSVKGRFTISRDNAKNTVYLQMNSLKPEDTAVYYCAAPGRGWFDWYAHYYWGQGTQVTVSS | low polyreactivity
17 | QVQLVESGGGLVQAGGSLRLSCAASGITFSFYAMGWYRQAPGKERELVAGLTRSGGDTYYADSVKGRFTISRDNAKNTVYLQMNSLKPEDTAVYYCAAAWFFYRRQYTFFAGRMDYWGQGTQVTVSS | high polyreactivity
18 | QYQLVESGGGLVQAGGSLRLSCAASGFIFSTNAMGWYRQAPGKERELVAAISRRGGNTYYADSLKGRFTISRDNAKNTVYLQMNSLKPEDTAVYYCAKRGVYGYRYYYWGQGTQVTVSS | high polyreactivity
19 | QVQLVESGGGLVQAGGSLRLSCAASGITLTNNAMGWSRHAPGKERELVAAITRSGGSTYYADSVKGRFTISRDNAKNTVYLLMNSLKPEVTAVYCAARWYSYSGSIRSYDYWGQGTQVTVSS | low polyreactivity
20 | QVQLVESGGGLVQAGGSLRLSCAASGSIFRSNTMGWSRQAPGKERELVARISSTGGSTYYADSVKGRFTISRDNAKKTVYLQLNSLKPEDTAVYYCNKVRGINHLYDMNYWGQGTQVTVSS | high polyreactivity
21 | QVQLVESGGGLVQAGGSLRLSCAASGSLFRYYAMGWYRQAPGTERELVAAITGRGGSTYYADSVKGRFTISRDNAKNTVYLQMNSLKPEDTAVYYCADYIDANVHRFDYWGQGTQVTVSS | low polyreactivity
22 | QVQLVESGGGLVQAGGSLRLSCAASGFIFRYYAMGWYRQAPGKERELVARIRSSGGSTYYADSVKGRFTISRDNAKKTVYLKMNSLKPEDTAVYYCDTVSYITYYGGYGYWGQGTQVTVSS | high polyreactivity

Row | Sequence | polyreactivity (PSR sort gate)
23 | LVQVVESGGGLVQAGGSLGLSCAASGRIFRDYAMGWYRPATGKERELVAAISWSTVHTYYADSVKGRFTISRDNAKNTVYLQMNCLKPEDTAVYYCAVDRPGLTYYDYDYWGQGTQVTVSS | low polyreactivity
24 | QVQLVESGGGLVQAGGSLRLSCAASGITFKRYAMGWYIQAPGKERELVAAISDIGGRTYYADSVKGRFTISRDNAKNTVYLQMNSLKPEDTEVYYCAADYYSPVDWYYYWGQGTQVTVSS | high polyreactivity
25 | QVQLVESGGGLVQAGGSLRLSCAASGSISYYAMGWYRQAPGKERELVAAISSSGGSTYYADSVKGRFTISRDNAKNTVYLQMNSLKPEDTAVYYCAAYGRYGAHTGYGSWGQGTQVTVSS | high polyreactivity
26 | QVQLVESGGGLVQAGGSLPLSCAASGSIFYSNAMGWYRQAPGKERELVARISRSGGSTYYADSVKGRFTISRDNAKNTVYLQMNSLKPEDTAVYYCAKTFTRSWGLGGSWGQGTQVTVSS | low polyreactivity
27 | QVQLVESGCGLVHAGGSLRLSCAASGSNFGDYAMGCYRQAPGKERELVAAITKSGGTTYYADSVKGRFTISRDNAKNTVYLQMNSLKPEDTSFYYCAADPIRYRSRHKYGYWGQGTQVTVSS | low polyreactivity
28 | QVQLVESGGGLVQAGGSLRLSCAASGRIFVYNAMGWYRQAPGKERELVAAINSGDSTYYADSVKGRFTISRDNAKNTVYLQMNSLKPEDTAVYYCAADIHYYPGYLAYDYWGQGTQVTVSS | low polyreactivity
29 | QVQLVESGGGLVQAGGSLRLSCAASGSIFYFNAMGWYRQAPGKERELVAAITYSGGSTYYADSVKGRFTISRDNAKNTVYLQMNSLKPEDTAVYYCNAQVYYSVRGYPYGYYRNDYWGQGTQVTVSS | low polyreactivity
30 | QVQLVESGGGLVQAGGSLRLSCAASGIIILWNAMGWDRQAPGKERELVATISWTDGSTSYADSVKGRFTISRDNAKNTVYLQMNSLKPEDTAVYYCNVRHKSYRKSDYWGQGTQVTVSS | low polyreactivity
31 | QVQLVESGGGLVQAGGSLRLSCAASGSTFWFNAMGWYRQAPGKERELVAAITYRGASTNYADSVKGRFTISRDNAKNTVYLQMNSLKPEDTAVYYCATRPTWRPVPDSDVSTYGYWGQGTQVTVSS | low polyreactivity
32 | QVQLVESGGGLVQAGGSLRLSCAASGSTFDRYGMGWYRQAPGKERELVAAITWSVGSTYYADSVKGRFTISRDNAKNTVYLQMNSLKPEDTAVYYCNAGVLGVYTSYNGDDYWGQGTQVTVST | low polyreactivity
33 | QVQLVESGGGLVQAVGSLRLSCAASGRTFWANTMGWYRQAPGKERELVAAISKRGGSTYYADSVKGRFTISRDNAKNTVYLQMNSLKPEDTAVYYCNADKSGWYDYWGQGTQVTVSS | high polyreactivity
34 | QVQLVESGGGLVQAGGSLRLSCAASGSTFGWYAMGGYRQAPGKERELVAAISASGGATYYADSVKGRFTISRDNAKNTVYLQMNSLKPEDTAVYYCAAVRYPNWYDYWGQGTQVTVSS | high polyreactivity
35 | QVQLVETGGGLVQAGSSLRLSCAASGSTFIVYAMGWYRQAPGKEREFVAAITYRGGSSYYADSVKGRFTISRDNAKNTVYLQMNSLKPEDTAVYYCATETDRYPYIRRYQFPYYYWGQGTQVTVSS | high polyreactivity
36 | QVQLVESGGGVVQAGGSLRLSCAASGRICAYYTMGWYRQAPGKERELVAAINQSGGSTYYADSVKGRFTISRDNAKYTEYLQMNSLKPEDTAVFYCAAQPTIYSTPHPEYNYWGQGTQVNVSS | low polyreactivity
37 | QVQLVESGGGLVQAGGSLRLSCAASGRTFGSYAMGWYRQAPGKERELVAAISRSGTNTYYADSVKGRFTISRDNAKNTVYLQMNSLKPEDTAVYYCATDFYFSSVLVWFSYGYWGQGTQVTVSS | low polyreactivity
38 | QVQLVESGGGLVQAGGSLRLSCAASGRTFNDYAMGWYRQATGKERELVAGITWRGGSTYYADSVKGRFTISRDNAKNTVYLQMNSLKPEDTAVYYCNAVPRRGYSRRDYWGQGTQVTVSS | high polyreactivity
39 | QFQIVESGGGLVQAGGSLRISCAASVFIFARYAIGWYRQAHGKEREFVAAISSSGGSTYYADSVKGRFTISRDNAKNTVYLQMNSLKPADTAVYYCNVRLRIRSGYWGQGSQVTVSS | high polyreactivity
40 | QVQLVESGGGLVQAGGSLRLSCAASGRILPYNVMGWYRQATGKEREFVAAITGSGGDTYYADSVKGRFTISRDNAKNTVYLQMHILKPVDTAVYYCAAAPYIGGSFGQTPGSGYWGQGTQVTVSS | low polyreactivity
41 | QVQLVESGGGLVQAGGSLRLSCAASGSTFDGYAMGWYRQAPGKERELVAAISRSGGRTYYADSVKGRFTISRDNAKNTVYLQMNSLKPEDTAVYYCAALYPYKREDYWGQGTQVTVSS | high polyreactivity
42 | QVQLVESGGCLFQAGGSLRLSCAASGNIFLYYAMGWYRQAPGKERELVADIDSSGASTYYADSVKGRFTISRDNAKNTGYLQMNSLIPEDTAVYDCDKDSNRYSYYSPYDSWGQGTQVTVSS | low polyreactivity
43 | QDQLVEERGGLVQAGGSLRLSCAASGITFSTNAMGWYRQAPGKERELVAAITSVTSTYYADSVKGRFTISRDYAKNSVYLQMNSLKTEDTAVLYCAASLSRWPYFYEYNYWGQGTQVTVSS | low polyreactivity
